Assay [1] addresses monomeric wild-type RBD (319-541) of the SARS-CoV-2 spike (S)-protein (SARS-CoV-2 (Wuhan-Hu-1 isolate)) (UniProt P0DTC2). Kind of assay: SEC. Background: SEC sorts molecules by how far they enter the pores of the column.
For assay [2], the target named is tRBD-TA, truncated RBD (319-537) with T323 mutated to alanine (SARS-CoV-2 (Wuhan-Hu-1 isolate)) (UniProt P0DTC2). Kind of assay: SEC.

As usually defined, the stoichiometry N is the number of molecules, sites or subunits per partner or assembly. With “monomeric wild-type RBD (319-541) of the SARS-CoV-2 spike (S)-protein (from UniProt P0DTC2 319-541) (domain or fragment)”, in assay [1], the proportion of dimer in the preparation is 20 to 25% and the stoichiometry N amounted to 2.
Consider “tRBD-TA, truncated RBD (319-537) with T323 mutated to alanine (from UniProt P0DTC2 319-537) (domain or fragment)”, for which, in assay [2], the percent of the protein dimerized after 7 days at 25°C came out at 10% and the proportion of dimer in the preparation lay in the range of 25 to 28%.

Source of the values: publication PMC9011732.
